Entries after “also recorded” stand apart in the source; their conditions may differ.
System: contortrixobin digestion of Fg
Test: Fibrinopeptide B release by contortrixobin, HPLC
Assay type: biochemical, human
Conditions: 1:5 ratio of Fg to rSdrG(50-597) (1.5 μM), 60 min
Method: Superimposed chromatograms show the amount of fibrinopeptide released when the Fg-contortrixobin sample has no SdrG present (upper curve) and when the Fg-contortrixobin sample is incubated with 1.5 μM rSdrG(50-597) (lower curve) at the 60 min time point.
Analysis of Fibrinopeptide B Release by HPLC—As in chapter two, we monitored the fibrinopeptide release in the presence of SdrG and the β-fibrinogenase contortrixobin. The HPLC chromatograms shown in FIG. 10 show the expected fibrinopeptide release following digestion of Fg with contortrixobin superimposed with the fibrinopeptide release when Fg and contortrixobin are incubated with rSdrG(50-597). […] This is most likely because FpA is still intact on the Fg molecule, thus contortrixobin is not as effective at cleaving Fg due to steric hindrance from FpA.

B1: rSdrG(50-597): recombinant His-tagged A region (residues 50-597) of SdrG, a fibrinogen-binding MSCRAMM from S. epidermidis (protein)
chain: HHHHHHAEENTVQDVKDSNMDDELSDSNDQSSNEEKNDVINNSQSINTDDDNQIKKEETNSNDAIENRSKDITQSTTNVDENEATFLQKTPQDNTQLKEEVVKEPSSVESSNSSMDTAQQPSHTTINSEASIQTSDNEENSRVSDFANSKIIESNTESNKEENTIEQPNKVREDSITSQPSSYKNIDEKISNQDELLNLPINEYENKVRPLSTTSAQPSSKRVTVNQLAAEQGSNVNHLIKVTDQSITEGYDDSDGIIKAHDAENLIYDVTFEVDDKVKSGDTMTVNIDKNTVPSDLTDSFAIPKIKDNSGEIIATGTYDNTNKQITYTFTDYVDKYENIKAHLKLTSYIDKSKVPNNNTKLDVEYKTALSSVNKTITVEYQKPNENRTANLQSMFTNIDTKNHTVEQTIYINPLRYSAKETNVNISGNGDEGSTIIDDSTIIKVYKVGDNQNLPDSNRIYDYSEYEDVTNDDYAQLGNNNDVNINFGNIDSPYIIKVISKYDPNKDDYTTIQQTVTMQTTINEYTGEFRTASYDNTIAFSTSSGQGQGDLPPE
  FpB release by contortrixobin: effectively inhibit FpB release; also recorded: decrease in the amount of FpB released
Listed as rSdrG (50-597)
  FpB release by contortrixobin: A decrease in the amount of FpB release

— US6835378B2, “Method and compositions for inhibiting thrombin-induced coagulation” (The Texas A&M University System University, priority 2001, dated 2004)
